Laboratory results: patent WO2012132067A1 (dated 2012)

Assays:
[1] = molecular target: T1, soluble human IL-6 receptor (human, UniProt P08887 20-357); assay: summary of the Biacore result of Reference Example 7, told in Reference Example 12
T1 construct: The stated range 1-357 is that of the expressed construct; also called hsIL-6R
T1 sequence: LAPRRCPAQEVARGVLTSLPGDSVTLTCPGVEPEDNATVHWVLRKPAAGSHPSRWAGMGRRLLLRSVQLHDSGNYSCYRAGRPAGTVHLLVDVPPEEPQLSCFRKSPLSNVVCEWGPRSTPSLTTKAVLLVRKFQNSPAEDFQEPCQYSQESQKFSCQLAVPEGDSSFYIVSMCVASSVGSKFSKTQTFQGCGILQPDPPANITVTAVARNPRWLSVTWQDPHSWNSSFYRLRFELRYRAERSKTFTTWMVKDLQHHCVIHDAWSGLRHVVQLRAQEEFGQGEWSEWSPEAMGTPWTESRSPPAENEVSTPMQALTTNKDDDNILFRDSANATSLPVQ

mouse FcγRIIb = molecular target: T2, mouse FcγRIIb (mouse, UniProt P08101 30-210, limits assumed); assay: SPR (Biacore), antibody held on immobilised mouse FcRn, FcγR injected, pH 7.4, 25 C
T2 sequence (looked up): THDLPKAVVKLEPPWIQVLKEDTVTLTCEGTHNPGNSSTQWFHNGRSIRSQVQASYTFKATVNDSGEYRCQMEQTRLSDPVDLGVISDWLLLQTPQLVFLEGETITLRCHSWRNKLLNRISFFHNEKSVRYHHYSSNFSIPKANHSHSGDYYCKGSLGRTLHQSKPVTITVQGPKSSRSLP

mouse FcγRIII = molecular target: T3, mouse FcγRIII (mouse, UniProt P08508 31-215); assay: as above
T3 sequence (looked up): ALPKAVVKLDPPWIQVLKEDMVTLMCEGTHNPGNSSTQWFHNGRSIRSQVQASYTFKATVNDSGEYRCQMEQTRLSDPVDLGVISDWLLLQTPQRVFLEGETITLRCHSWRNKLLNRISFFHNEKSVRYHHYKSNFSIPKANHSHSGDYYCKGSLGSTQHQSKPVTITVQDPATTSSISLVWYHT

mouse FcγRI = molecular target: T4, mouse FcγRI (mouse, UniProt P26151 25-297); assay: as above
T4 sequence (looked up): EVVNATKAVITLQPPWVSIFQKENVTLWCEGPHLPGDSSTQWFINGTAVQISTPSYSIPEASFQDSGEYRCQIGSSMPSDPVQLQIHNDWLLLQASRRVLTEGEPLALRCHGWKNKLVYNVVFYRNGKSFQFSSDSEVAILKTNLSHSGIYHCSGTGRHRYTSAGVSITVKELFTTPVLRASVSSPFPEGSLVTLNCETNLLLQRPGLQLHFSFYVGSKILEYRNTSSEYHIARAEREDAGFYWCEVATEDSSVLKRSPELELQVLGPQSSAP

human FcγRIIa(R) = molecular target: T5, human FcγRIIa(R) (human, UniProt P12318 36-217); assay: Biacore T100, Protein A capture, 25 C; against IgG1 (IL6R-G1d); the Japanese text says improved 522-fold
T5 construct: also called hFcgRIIa(R); FcγRIIa R type
T5 chain: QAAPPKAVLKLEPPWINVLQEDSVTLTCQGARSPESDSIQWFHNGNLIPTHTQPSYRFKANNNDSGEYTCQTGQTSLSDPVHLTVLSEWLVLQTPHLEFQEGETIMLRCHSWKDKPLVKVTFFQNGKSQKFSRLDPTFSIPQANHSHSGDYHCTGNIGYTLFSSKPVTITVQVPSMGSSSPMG

human FcγRIIa(H) = molecular target: T6, human FcγRIIa(H) (human, UniProt P12318 36-217); assay: Biacore T100, Protein A capture, 25 C; against IgG1 (IL6R-G1d)
T6 construct: also called hFcgRIIa(H); FcγRIIa H type
T6 sequence: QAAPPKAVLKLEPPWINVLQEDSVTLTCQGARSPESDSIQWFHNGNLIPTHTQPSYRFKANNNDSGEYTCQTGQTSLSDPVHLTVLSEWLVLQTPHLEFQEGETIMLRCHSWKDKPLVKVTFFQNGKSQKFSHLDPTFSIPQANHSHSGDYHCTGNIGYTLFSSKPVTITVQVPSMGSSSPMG

human FcγRIIb [2] = molecular target: T7, human FcγRIIb (human, UniProt P31994 43-217, limits assumed); assay: as above
T7 construct: also called hFcgRIIb
T7 sequence: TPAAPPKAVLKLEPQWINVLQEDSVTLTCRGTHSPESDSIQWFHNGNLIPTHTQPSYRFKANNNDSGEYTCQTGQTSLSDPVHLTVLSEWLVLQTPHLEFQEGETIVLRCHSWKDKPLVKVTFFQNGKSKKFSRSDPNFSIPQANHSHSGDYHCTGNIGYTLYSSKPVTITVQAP

human FcRn [3] = molecular target: T8, human FcRn (human, UniProt P55899 24-290; P61769 21-119, limits assumed); assay: Biacore, human FcRn, pH 7.0 (Table 20 not given)
T8 construct: also called hFcRn
T8 sequence (P55899 24-290 limits assumed, chain 1 of 2): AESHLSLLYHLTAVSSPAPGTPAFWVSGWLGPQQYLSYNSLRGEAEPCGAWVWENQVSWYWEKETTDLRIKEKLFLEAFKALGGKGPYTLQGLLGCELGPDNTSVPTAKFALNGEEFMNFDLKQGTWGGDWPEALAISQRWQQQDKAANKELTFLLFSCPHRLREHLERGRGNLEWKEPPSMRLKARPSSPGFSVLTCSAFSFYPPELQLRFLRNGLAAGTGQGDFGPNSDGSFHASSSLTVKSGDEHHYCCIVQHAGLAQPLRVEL
T8 sequence (P61769 21-119 limits assumed, chain 2 of 2): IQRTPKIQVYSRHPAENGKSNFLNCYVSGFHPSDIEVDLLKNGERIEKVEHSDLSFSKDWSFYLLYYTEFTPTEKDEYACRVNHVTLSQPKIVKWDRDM

human FcγRIIb [4] = molecular target: T7, human FcγRIIb; assay: Biacore T100, Protein L capture, FcγR injected, pH 7.4, 25 C (Table 19 not given)
human FcRn [5] = molecular target: T8, human FcRn; assay: Biacore, Protein L capture, human FcRn injected, pH 7.0 (Table 6 not given)

B1: FH4-IgG1 (antibody, V domains shown)
VH: QVQLVQSGAEVKKPGSSVKVSCKASGGTFSSYAISWVRQAPGQGLEWMGGIIPIFGTANYAQKFQGRVTITADESTSTAYMELSSLRSEDTAVYYCARERDYYDSSGYYDAFDIWGQGTMVTVSS
VL: ETTVTQSPSFLSASVGDRVTITCITTTDIDDDMNWFQQEPGKAPKLLISEGNILRPGVPSRFSSSGYGTDFTLTISKLQPEDFATYYCLQSDNLPFTFGQGTKLEIKR
notes: Ca-dependent anti-human IL-6 receptor antibody from a naive human phage library
Ca-dependence of binding (fold) [1]: ≥ 100 fold

B2: mPM1-mIgG1-mF3 (antibody)
heavy: DVQLQESGPVLVKPSQSLSLTCTVTGYSITSDHAWSWIRQFPGNKLEWMGYISYSGITTYNPSLKSRISITRDTSKNQFFLQLNSVTTGDTSTYYCARSLARTTAMDYWGQGTSVTVSSAKTTPPSVYPLAPGSAAQTNSMVTLGCLVKGYFPEPVTVTWNSGSLSSGVHTFPAVLQSDLYTLSSSVTVPSSTWPSETVTCNVAHPASSTKVDKKIVPRDCGCKPCICTVPEVSSVFIFPPKPKDVLYITLEPKVTCVVVDISKDDPEVQFSWFVDDVEVHTAQTQPREEQFNSTFRSVSELPIMHQDWLNGKEFKCRVNSAAFPAPIEKTISKTKGRPKAPQVYTIPPPKEQMAKDKVSLTCMITDFFPEDITVEWQWNGQPAENYKNTQPIMDTDGSYFVYSKLNVQKSNWEAGNTFTCSVLHEGLKFHHTEKSLSHSPGK
light: DIQMTQTTSSLSASLGDRVTISCRASQDISSYLNWYQQKPDGTIKLLIYYTSRLHSGVPSRFSGSGSGTDYSLTINNLEQEDIATYFCQQGNTLPYTFGGGTKLEIKRADAAPTVSIFPPSSEQLTSGGASVVCFLNNFYPKDINVKWKIDGSERQNGVLNSWTDQDSKDSTYSMSSTLTLTKDEYERHNSYTCEATHKTSTSPIVKSFNRNEC
notes: Mouse IgG1 anti-human IL-6R antibody of mPM1H-mIgG1-mF3 and mPM1L-mk1; copies: 2 + 2
binding result (mouse FcγRIIb): binds
binding result (mouse FcγRIII): binds
binding result (mouse FcγRI): no binding

B3: 6RL#9-IgG1 (antibody, V domains shown, not shown: a dimerising Fc or GST)
VH: QVQLVQSGAEVKKPGASVKVSCKASGYTFTSYYMHWVRQAPGQGLEWMGIINPSGGSTSYAQKFQGRVTMTRDTSTSTVYMELSSLRSEDTAVYYCARDDPGGGEYYFDYWGQGTLVTVSS
VL: QSVLTQPPSVSGAPGQRVTISCTGSRSNMGAGYDVHWYQLLPGAAPKLLISHNTHRPSGVPDRFSGSKSGASASLAITGLQAEDEADYYCQSHDSSLSAVVFGGGTKLTVLS
notes: Ca-dependent anti-human IL-6 receptor antibody from a naive human phage library; also called 6RL#9 antibody
Ca-dependence of binding (fold) [1]: ≥ 100 fold

B4: IgG1-v3 (IL6R-G1d_v3/IL6R-L) (antibody)
heavy: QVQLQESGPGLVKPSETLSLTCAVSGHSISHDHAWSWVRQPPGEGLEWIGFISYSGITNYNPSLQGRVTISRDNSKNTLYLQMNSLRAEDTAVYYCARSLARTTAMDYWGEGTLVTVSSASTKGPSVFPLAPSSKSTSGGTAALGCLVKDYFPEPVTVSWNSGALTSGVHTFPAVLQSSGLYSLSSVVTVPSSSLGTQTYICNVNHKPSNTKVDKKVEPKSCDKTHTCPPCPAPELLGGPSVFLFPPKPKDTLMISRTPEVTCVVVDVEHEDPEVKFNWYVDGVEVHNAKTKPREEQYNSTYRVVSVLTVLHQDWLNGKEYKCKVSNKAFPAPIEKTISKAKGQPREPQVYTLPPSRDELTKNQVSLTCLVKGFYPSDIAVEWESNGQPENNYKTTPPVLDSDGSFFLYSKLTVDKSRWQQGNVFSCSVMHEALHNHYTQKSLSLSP
light: DIQMTQSPSSLSASVGDRVTITCRASQDISSYLNWYQQKPGKAPKLLIYYTSRLHSGVPSRFSGSGSGTDFTFTISSLQPEDIATYYCQQGNTLPYTFGQGTKVEIK
notes: IL6R-G1d with S267E/L328F (EU), known mutation used for comparison; copies: 2 + 2
relative KD (KD of IgG1 divided by KD of the variant) (human FcγRIIa(R)): 522 fold
relative KD (KD of IgG1 divided by KD of the variant) (human FcγRIIa(H)): 0.51 fold
relative KD (KD of IgG1 divided by KD of the variant) (human FcγRIIb [2]): 408 fold

B5: Fv4-IgG1-F20 (antibody)
heavy: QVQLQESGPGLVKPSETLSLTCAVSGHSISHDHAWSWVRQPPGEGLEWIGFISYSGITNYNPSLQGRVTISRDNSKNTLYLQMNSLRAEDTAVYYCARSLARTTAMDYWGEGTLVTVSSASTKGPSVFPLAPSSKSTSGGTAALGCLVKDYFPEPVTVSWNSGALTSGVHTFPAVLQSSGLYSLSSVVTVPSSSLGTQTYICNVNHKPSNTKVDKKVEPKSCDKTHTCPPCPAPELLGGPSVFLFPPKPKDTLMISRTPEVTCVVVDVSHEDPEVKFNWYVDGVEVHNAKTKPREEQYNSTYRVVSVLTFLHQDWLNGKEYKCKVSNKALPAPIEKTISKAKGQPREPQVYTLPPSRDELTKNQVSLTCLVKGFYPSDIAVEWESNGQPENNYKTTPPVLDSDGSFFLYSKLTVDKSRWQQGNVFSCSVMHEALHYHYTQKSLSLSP
light: DIQMTQSPSSLSASVGDSVTITCQASTDISSHLNWYQQKPGKAPELLIYYGSHLLSGVPSRFSGSGSGTDFTFTISSLEAEDAATYYCGQGNRLPYTFGQGTKVEIERTVAAPSVFIFPPSDEQLKSGTASVVCLLNNFYPREAKVQWKVDNALQSGNSQESVTEQDSKDSTYSLSSTLTLSKADYEKHKVYACEVTHQGLSSPVTKSFNRGEC
notes: VH3-IgG1-F20 with VL3-CK; copies: 2 + 2
binding result (mouse FcγRIIb): binds
binding result (mouse FcγRIII): binds
binding result (mouse FcγRI): binds

B6: VH3/L(WT)-IgG1-F652 (antibody)
heavy: QVQLQESGPGLVKPSETLSLTCAVSGHSISHDHAWSWVRQPPGEGLEWIGFISYSGITNYNPSLQGRVTISRDNSKNTLYLQMNSLRAEDTAVYYCARSLARTTAMDYWGEGTLVTVSSASTKGPSVFPLAPSSKSTSGGTAALGCLVKDYFPEPVTVSWNSGALTSGVHTFPAVLQSSGLYSLSSVVTVPSSSLGTQTYICNVNHKPSNTKVDKKVEPKSCDKTHTCPPCPAPELLGGDSVFLFPPKPKDTLYISRTPEVTCVVVDVSHEDPEVKFNWYVDGVEVHNAKTKPREEQYNSTYRVVSVLTVLHQDWLNGKEYKCKVSNKALPAPIEKTISKAKGQPREPQVYTLPPSRDELTKNQVSLTCLVKGFYPSDIAVEWESNGQPENNYKTTPPVLDSDGSFFLYSKLTVDKSRWQQGNVFSCSVMHEALHYHYTQKSLSLSP
light: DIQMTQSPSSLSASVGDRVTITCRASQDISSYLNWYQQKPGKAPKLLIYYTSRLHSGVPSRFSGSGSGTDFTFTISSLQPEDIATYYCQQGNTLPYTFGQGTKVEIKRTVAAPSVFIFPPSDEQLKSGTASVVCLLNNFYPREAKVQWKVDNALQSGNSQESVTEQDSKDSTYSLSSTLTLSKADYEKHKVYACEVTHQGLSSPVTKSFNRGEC
notes: VH3-IgG1-F11 with P238D (EU); copies: 2 + 2
binding result (human FcRn [3]): binds
binding result (human FcγRIIb [4]): binds

B7: VH3/L(WT)-IgG1-F21 (antibody)
heavy: QVQLQESGPGLVKPSETLSLTCAVSGHSISHDHAWSWVRQPPGEGLEWIGFISYSGITNYNPSLQGRVTISRDNSKNTLYLQMNSLRAEDTAVYYCARSLARTTAMDYWGEGTLVTVSSASTKGPSVFPLAPSSKSTSGGTAALGCLVKDYFPEPVTVSWNSGALTSGVHTFPAVLQSSGLYSLSSVVTVPSSSLGTQTYICNVNHKPSNTKVDKKVEPKSCDKTHTCPPCPAPELLGGPSVFLFPPKPKDTLYISRTPEVTCVVVDVSHEDPEVKFNWYVDGVEVHNAKTKPREEQYNSTYRVVSVLTPLHQDWLNGKEYKCKVSNKALPAPIEKTISKAKGQPREPQVYTLPPSRDELTKNQVSLTCLVKGFYPSDIAVEWESNGQPENNYKTTPPVLDSDGSFFLYSKLTVDKSRWQQGNVFSCSVMHEALHYHYTQKSLSLSP
light: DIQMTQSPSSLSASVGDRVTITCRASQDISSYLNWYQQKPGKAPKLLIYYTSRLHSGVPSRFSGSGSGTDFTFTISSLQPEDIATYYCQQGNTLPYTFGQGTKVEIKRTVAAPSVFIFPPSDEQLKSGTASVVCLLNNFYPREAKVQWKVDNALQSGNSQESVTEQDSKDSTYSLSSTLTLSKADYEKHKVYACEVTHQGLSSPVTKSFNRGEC
notes: Measured with light chain L(WT)-CK; result sentences name it Fv4-IgG1-F21; also called Fv4-IgG1-F21; copies: 2 + 2
binding result (human FcRn [5]): binds

B8: VH3/L(WT)-IgG1-F157 (antibody)
heavy: QVQLQESGPGLVKPSETLSLTCAVSGHSISHDHAWSWVRQPPGEGLEWIGFISYSGITNYNPSLQGRVTISRDNSKNTLYLQMNSLRAEDTAVYYCARSLARTTAMDYWGEGTLVTVSSASTKGPSVFPLAPSSKSTSGGTAALGCLVKDYFPEPVTVSWNSGALTSGVHTFPAVLQSSGLYSLSSVVTVPSSSLGTQTYICNVNHKPSNTKVDKKVEPKSCDKTHTCPPCPAPELLGGPSVFLFPPKPKDTLMISRTAEVTCVVVDVSHEDPEVKFNWYVDGVEVHNAKTKPREEQYNSTYRVVSVLTPLHQDWLNGKEYKCKVSNKALPAPIEKTISKAKGQPREPQVYTLPPSRDELTKNQVSLTCLVKGFYPSDIAVEWESNGQPENNYKTTPPVLDSDGSFFLYSKLTVDKSRWQQGNVFSCSVLHEALHYHYTQKSLSLSP
light: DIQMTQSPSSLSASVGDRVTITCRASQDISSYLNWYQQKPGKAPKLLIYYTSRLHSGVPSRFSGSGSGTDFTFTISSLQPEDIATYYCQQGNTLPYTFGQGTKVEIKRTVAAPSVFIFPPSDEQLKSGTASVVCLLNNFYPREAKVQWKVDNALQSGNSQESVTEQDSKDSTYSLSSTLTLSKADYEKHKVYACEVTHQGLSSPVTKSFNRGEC
notes: also called Fv4-IgG1-F157 (name in result sentence); copies: 2 + 2
binding result (human FcRn [5]): binds
